Experimental findings from patent publication US20180127493A1 are described below.

For assay [1], the target named is Human TNFα N-his trimers (human) (UniProt P01375). In words: SPR, BIAcore T100, His-tagged human TNFα trimers captured on NTA chip, scFv as analyte. (Surface plasmon resonance follows binding to a sensor surface in real time, without labels.)
Assay [2] has as its target recombinant human VEGF165 (PeproTech EC Ltd.) (human) (UniProt P15692). Description: SPR, BIAcore T100, hVEGF165 amine-coupled on CM4 chip, scFv as analyte.
Assay [3] has as its target VEGF (as used in the VEGFR competition ELISA). In words: competition ELISA, VEGF binding to hVEGFR1; ratio to reference Luc. On the technique in general: ELISA stands for enzyme-linked immunosorbent assay.

What is called Kd is the constant that tells how readily two partners part at equilibrium. As a reminder, the koff is a measure of how fast the partners let go of each other. Broadly, the kon is a measure of how fast the partners come together.

recombinant human VEGF165 (PeproTech EC Ltd.) (human), sequence (P15692 other isoform, or with tags, fused parts or gaps limits assumed): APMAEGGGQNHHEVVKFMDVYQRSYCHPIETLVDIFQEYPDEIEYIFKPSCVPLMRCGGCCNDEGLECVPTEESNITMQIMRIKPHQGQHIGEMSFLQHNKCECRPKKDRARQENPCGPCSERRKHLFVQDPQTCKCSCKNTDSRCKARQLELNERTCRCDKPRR
VEGF (as used in the VEGFR competition ELISA), sequence (P15692 whole entry): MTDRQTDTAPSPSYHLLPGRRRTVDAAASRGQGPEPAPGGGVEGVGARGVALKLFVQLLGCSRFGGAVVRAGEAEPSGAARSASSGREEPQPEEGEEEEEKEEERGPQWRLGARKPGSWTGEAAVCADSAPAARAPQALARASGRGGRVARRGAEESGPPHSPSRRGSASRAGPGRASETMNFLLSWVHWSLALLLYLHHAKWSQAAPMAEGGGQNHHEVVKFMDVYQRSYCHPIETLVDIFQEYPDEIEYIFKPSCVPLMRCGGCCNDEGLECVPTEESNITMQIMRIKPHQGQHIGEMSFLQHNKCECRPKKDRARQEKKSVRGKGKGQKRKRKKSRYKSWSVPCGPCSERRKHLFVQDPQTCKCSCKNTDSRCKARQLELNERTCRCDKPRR
Human TNFα N-his trimers (human), sequence (P01375 77-233 limits assumed): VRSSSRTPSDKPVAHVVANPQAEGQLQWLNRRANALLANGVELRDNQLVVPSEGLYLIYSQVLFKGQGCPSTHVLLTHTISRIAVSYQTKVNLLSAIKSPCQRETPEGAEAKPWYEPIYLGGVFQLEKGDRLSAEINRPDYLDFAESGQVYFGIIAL

B1: EP43_min (scFv)
scFv: EIVMTQSPSTLSASVGDRVIITCQASQSISDWLAWYQQKPGKAPKLLIYGASRLASGVPSRFSGSGSGAEFTLTISSLQPDDFATYYCQQGWSDSYVDNLFGQGTKLTVLGGGGGSGGGGSGGGGSGGGGSEVQLVESGGGLVQPGGSLRLSCAASGFSLSSGAMSWVRQAPGKGLEWVSVIISSGATYYASWAKGRFTISRDNSKNTLYLQMNSLRAEDTAVYYCAKGGPDDSNSMGTFDPWGQGTLVTVSS
B1: the dissociation constant Kd in assay [1] came out at 5540 nM.

B2: 511-max (scFv, from a related filing, part only)
scFv: EIVMTQSPSTLSASVGDRVIITCQASQSINIWLSWYQQKPGKAPKLLIYRASTLASGVPSRFSGSGSGTEFTLTISSLQPDDFATYYCQANYAYSAGYGAAFGQGTKLTVLGGGGGSGGGGSGGGGSGGGGSEVQLVESGGGLVQPGGSLRLSCTVSGFSLNTYYMNWVRQAPGKGLEWVGIIAPDDTTYYASWAKSRSTISRDTSKNTVYLQMNSLRAEDTAVYYCARSGDTTAWGADIWGQGTLVTVSS
For the molecule B2, in assay [2], the Kd amounted to 0.0667 nM, the koff turned out to be 4.4e-05 s⁻¹ and the kon came out at 659000 M⁻¹ s⁻¹. For the same molecule, in assay [3], the Rel. activity hVEGR1 comp. ELISA (EC50Luc [nM]/EC50test [nM]) came to 8.

B3: 578-max (scFv, from a related filing, part only)
scFv: EIVMTQSPSTLSASVGDRVIITCQASEIIHSWLAWYQQKPGKAPKLLIYLASTLASGVPSRFSGSGSGTQFTLTISSLQPDDFATYYCQNVYLASTNGANFGQGTKLTVLGGGGGSGGGGSGGGGSGGGGSEVQLVESGGGLVQPGGSLRLSCTASGFSLTDYYYMTWVRQAPGKGLEWVGFIDPDDDPYYATWAKGRFTISRDTSKNTVYLQMNSLRAEDTAVYYCAGGDHNSGWGLDIWGQGTLVTVSS
Consider B3, for which, in assay [2], the Kd came to 0.439 nM, the koff worked out at 0.000307 s⁻¹ and the association rate constant (kon) amounted to 700000 M⁻¹ s⁻¹.
